{"source": "paper PMC7464562", "biological_target": "SARS-CoV-2 S2 fragment (fusion fragment; postfusion S2 trimer, peak 2) (SARS-CoV-2)", "test": "cryo-EM structure"}
{"substance": "SARS-CoV-2 S2 fragment (fusion fragment; postfusion S2 trimer, peak 2) (domain or fragment)", "values": [{"measurement": "stoichiometry N", "result": 3}]}
